Molecular target: Nedd8-AMC (Boston Biochem), Q15843
Sequence (Q15843 whole entry, looked up): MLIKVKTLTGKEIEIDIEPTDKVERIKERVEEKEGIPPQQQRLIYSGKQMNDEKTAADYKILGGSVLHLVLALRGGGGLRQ

B1: Uch-L3 (Boston Biochem) (protein)
chain: MEGQRWLPLEANPEVTNQFLKQLGLHPNWQFVDVYGMDPELLSMVPRPVCAVLLLFPITEKYEVFRTEEEEKIKSQGQDVTSSVYFMKQTISNACGTIGLIHAIANNKDKMHFESGSTLKKFLEESVSMSPEERARYLENYDAIRVTHETSAHEGQTEAPSIDEKVDLHFIALVHVDGHLYELDGRKPFPINHGETSDETLLEDAIEVCKKFMERDPDELRFNAIALSAA
- hydrolysis of Nedd8-AMC: there was no reduction in hydrolysis of Nedd8-AMC, a ubiquitin-like protein that binds to and is cleaved by Uch-L3, when 20 nM Uch-L3 was incubated with 5 µM LDN
